According to patent CN101223191A (AGENSYS INC, dated 2008):
“And” between values parts separate entries of the source, which are not always exact repeats. Identical values can stand only once.

Key:
[1] = target: T1, human PSCA (prostate stem cell antigen, PSCA v.1) (human, UniProt O43653 12-83); test: FACS saturation binding on LAPC9AI cells, one-site binding (hyperbola) fit, Graphpad Prism
T1 construct: The whole entry is named; also called PSCA变体1; 细胞表面PSCA
T1 sequence: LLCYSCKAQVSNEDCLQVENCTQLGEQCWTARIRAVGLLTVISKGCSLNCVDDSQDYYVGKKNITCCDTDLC

[2] = target: T1, human PSCA (prostate stem cell antigen, …); test: FACS-based affinity on cell-surface PSCA (LAPC9AI cells)

Kd [1]: 0.593 nM and 0.636 nM
Kd [2]: 0.6 nM
B1: anti-PSCA MAb H1-1.10 (antibody, V domains shown)
VH: QLQESGPGLVKPSQTLSLTCTVSGGSISSGGYYWSWIRQHPGKGLEWIGYIYYSGSTYYNPSLKSRVTISVDTSKNQFSLKLSSGTAADTAVYYCARDHITMVRGVPKGMDVWGQGTTVTVSS
VL: QLTQSPSSLSASVGDRVTITCRASQSISRHLNWYQQKPGKAPKFLIYVASSLQSGVPSRFSGSGSGTDFTLTISSLQPEDFATYFCQQSYSIPRTFGQGTKVEIKR
notes: Fully human IgG1 (gamma 1) / kappa antibody from XenoMouse immunised with B300.19/PSCA cells; tested as hybridoma supernatant or purified antibody; also called PSCA H1-1.10; H1/1.10.1.1
